Measured values: patent publication US20200347136A1, “CONSTRAINED CYCLIC PEPTIDES AS INHIBITORS OF THE CD2:CD58 PROTEIN-PROTEIN INTERACTION FOR TREATMENT OF DISEASES AND AUTOIMMUNE DISORDERS” (Board of Supervisors for the University of Louisiana System, priority 2019, published 2020)

How the values were obtained:
[1] = biological target: CD58 expressed on OVCAR-3 and HFLS-RA cells (human) (UniProt P19256); assay: cell adhesion inhibition (Jurkat CD2 / CD58 cells); HFLS-RA cells
[2] = biological target: CD58 expressed on OVCAR-3 and HFLS-RA cells (human) (UniProt P19256); assay: cell adhesion inhibition (Jurkat CD2 / CD58 cells); OVCAR-3 cells

CD58 expressed on OVCAR-3 and HFLS-RA cells (human), sequence (P19256 29-250): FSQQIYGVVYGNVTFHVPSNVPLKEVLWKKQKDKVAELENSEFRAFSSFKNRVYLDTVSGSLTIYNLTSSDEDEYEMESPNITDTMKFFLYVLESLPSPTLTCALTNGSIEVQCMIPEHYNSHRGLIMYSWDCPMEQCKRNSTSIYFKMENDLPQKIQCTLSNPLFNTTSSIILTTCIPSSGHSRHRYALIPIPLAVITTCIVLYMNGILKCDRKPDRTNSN

Substance	IC50 [1]	IC50 [2]
Control	> 100 µM	> 100 µM
SFTI-wt (control)	> 50 µM	> 50 µM
